Measured values published in US9056079B2, “Molecules interfering with binding of calbindin to inositol monophosphatase for the treatment of mood disorders” (Ben-Gurion University of the Negev Research and Development …, priority 2008, dated 2015).
Read-outs that look alike come from different tables or passages of the source. Where no end group is shown, it is not given here.

Experiments:
[1] = test system: IMPase; settings: 30 mM LiCl; cited from earlier work
[2] = target: T1, IMPase (Bos taurus, UniProt P20456); settings: read-out: Ki, uncompetitive inhibition of IMPase; cited from earlier work
T1 sequence (P20456 1-277): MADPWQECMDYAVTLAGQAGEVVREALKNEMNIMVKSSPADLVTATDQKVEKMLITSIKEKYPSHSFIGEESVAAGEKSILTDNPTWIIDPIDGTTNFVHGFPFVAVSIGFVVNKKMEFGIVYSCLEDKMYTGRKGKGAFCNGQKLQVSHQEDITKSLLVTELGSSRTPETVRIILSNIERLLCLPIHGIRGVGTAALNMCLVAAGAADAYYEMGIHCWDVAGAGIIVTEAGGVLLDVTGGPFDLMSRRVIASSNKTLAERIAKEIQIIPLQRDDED

[3] = target: T2, calbindin-activated IMPase (Homo sapiens, UniProt P05937); test: IMPase activity in mouse brain crude homogenate in the presence of recombinant human calbindin and short peptides (malachite green phosphate assay); type: biochemical; design: from tissue; host or cells: mouse brain crude homogenate; key to IMPase Activity, nean ± SD: fraction of mean control value in each run; settings: for IMPase Activity, nean ± SD / effect of peptide on the enhancement of IMPase activity by calbindin (in words): 10 μM peptide; for IMPase Activity, nean ± SD: values normalized to the mean of the control values in each run; for effect of peptide on the enhancement of IMPase activity by calbindin (in words): 20 μM calbindin
T2 sequence (P05937 1-261): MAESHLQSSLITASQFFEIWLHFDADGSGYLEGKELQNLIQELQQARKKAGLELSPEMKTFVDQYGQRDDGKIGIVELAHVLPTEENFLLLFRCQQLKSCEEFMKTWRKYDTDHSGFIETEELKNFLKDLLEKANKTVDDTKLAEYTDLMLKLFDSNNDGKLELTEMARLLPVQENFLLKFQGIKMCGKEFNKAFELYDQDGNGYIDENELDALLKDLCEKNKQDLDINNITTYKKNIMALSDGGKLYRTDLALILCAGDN
Procedure: (§1) IMPase activity in mouse brain homogenates was measured as previously described [Cryns et al., 2008]. Inorganic phosphate liberated from inositol-1-phosphate was quantified spectrophotometrically in an ELISA reader (iEMS, Labsystems) using the malachite green color reagent. To study the effect of the synthetic peptides on the enhancing interaction between calbindin and IMPase the reaction was carried out in the presence of 20 μM human recombinant calbindin [Thulin and Linse, 1999] (produced by PPS, Rehovot, Israel, using the plasmid kindly donated by S. Linse, Lund, Sweden) and in the presence or absence of 10 μM of each of the peptides. In order to distinguish IMPase activity from non-specific phosphatases the reaction was carried out in the presence and absence of 30 mM LiCl. […] The enzyme activity was calculated as the difference between the activity values in absence and in the presence of Li. Values were normalized to the mean of the control values in each run.

[4] = test system: IMPase; test: Basal IMPase activity in the presence of peptide but in the absence of calbindin (control for nonspecific effect); type: biochemical
Procedure: To control for a possible nonspecific effect of short peptides on IMPase activity the enzyme's activity in the presence of Peptide 1 (but in the absence of calbindin) was assessed. […] Furthermore, possibilities were checked that there was a protease activity in the homogenate, and that eventual prior interaction between IMPase and calbindin prevents interference by the active peptides. To this end calbindin was preincubated with the homogenate for 10 min prior to the addition of the substrate. No difference in IMPase activity was found in these two experiments.
as §1, with “peptides.” for “peptides. In order to distinguish IMPase activity from non-specific phosphatases the reaction was carried out in the presence and absence of 30 mM LiCl.”, “Values were normalized to the mean of the control values in each run.” left out

[5] = target: T2, calbindin-activated IMPase; test: IMPase activity in postmortem human brain crude homogenate in the presence of human recombinant calbindin; type: biochemical; design: from tissue; host or cells: postmortem human brain crude homogenate
Procedure: The designed peptides were validated by in vitro IMPase activity measurements. As shown in the Examples (Table 1), IMPase activity of mouse brain crude homogenate is increased by 1.9 ±1.0 (S.D.) fold in the presence of 20 μM human recombinant calbindin. […] Peptides 2 through 4 (SEQ ID NO:2 through SEQ ID NO:4), which included the Lys-Glu-Lys motif or part of it, inhibited the activating interaction similarly to Peptide 1.
as §1

[6] = target: T2, calbindin-activated IMPase; design: from tissue; host or cells: postmortem human brain crude homogenate; settings: postmortem human prefrontal cortex crude homogenate; recombinant human calbindin; Shamir et al., 2005; cited from earlier work
[7] = 20 μM human recombinant calbindin

Compound | IMPase Activity, nean ± SD [3, 7] | also measured
[Cl-].[Li+] [LiCl] |  | inhibition of IMPase activity (in words) [1]: totally inhibits IMPase activity
[Li] [lithium] |  | Ki [2]: 800 µM
IAAAYP [Peptide 8] | 2.3 ± 1.7 | 
IAEAYP [Peptide 6] | 2.5 ± 1.1 | 
IAEKYP [Peptide 4] | 1.1 ± 0.6 | 
IKAKYP [Peptide 2] | 0.9 ± 0.5 | 
IKEAYP [Peptide 3] | 1.0 ± 0.5 | 
IKEKYP [Peptide 1, hexapeptide identical to residues 58-63 of IMPase] | 1.2 ± 0.9 | effect on basal activity of IMPase [4]: did not affect the basal activity of IMPase; effect of peptide on the enhancement of IMPase activity by calbindin (in words) [3]: strongly reduced; effect of peptide on calbindin-activated IMPase (in words) [5]: abolished this effect
Ile-Lys-Glu-Lys-Tyr (IKEKY; Peptide derived from the segment including residues 55-66 of IMPase) [Peptide 9] | 1.9 ± 0.6 | effect of peptide on the enhancement of IMPase activity by calbindin (in words) [3]: did not interfere with the enhancement of IMPase activity by calbindin
KHIKPS [Peptide 7] | 1.4 ± 0.2 | 
Lys-Glu-Lys (KEK; Peptide derived from the segment including residues 55-66 of IMPase) [Peptide 10] | 2.6 ± 1.2 | effect of peptide on the enhancement of IMPase activity by calbindin (in words) [3]: did not interfere with the enhancement of IMPase activity by calbindin
SYEHKP [Peptide 5] | 1.4 ± 0.6 | 
calbindin: member of the vitamin-D-dependent calcium-binding proteins; binds IMPase residues 55-66 and enhances its activity | 1.9 ± 1.0 | increase of IMPase activity by calbindin [3, 7]: 1.9 ±1.0 fold; increase of IMPase activity by calbindin [6]: 3.5 fold; increase of human brain IMPase activity by calbindin [5]: three-fold
